Source: article PMC3448645, “Functional Studies of ssDNA Binding Ability of MarR Family Protein TcaR from Staphylococcus epidermidis”

Assays:
TcaR [1] = molecular target: T1, TcaR (Staphylococcus epidermidis, UniProt Q5HLN6 1-151); test: EMSA; EMSA: 20 mM Tris-HCl pH 8.0, 150 mM KCl, 0.1 mM MgCl2, 0.05 mM EDTA, 12.5% glycerol, 0.1 mM DTT, 1 mg/ml BSA, room temperature (30 C for viral ssDNA); SPR: 50 mM Tris, 150 mM NaCl, pH 7.5, 25 C; details: protein: recombinant, chain copies: 2
TcaR quadruple mutant = TcaR quadruple mutant (Staphylococcus epidermidis, UniProt Q5HLN6 1-151, R71A;K73A;R93A;K95A); test: as above; details: protein: recombinant, chain copies: 2
TcaR [2] = molecular target: T1, TcaR; test: EMSA; weaker than the single strands; EMSA: 20 mM Tris-HCl pH 8.0, 150 mM KCl, 0.1 mM MgCl2, 0.05 mM EDTA, 12.5% glycerol, 0.1 mM DTT, 1 mg/ml BSA, room temperature (30 C for viral ssDNA); SPR: 50 mM Tris, 150 mM NaCl, pH 7.5, 25 C; details: protein: recombinant; chain copies: 2
TcaR [3] = molecular target: T1, TcaR; test: EMSA; no significant interaction; 1 uM DNA; EMSA: 20 mM Tris-HCl pH 8.0, 150 mM KCl, 0.1 mM MgCl2, 0.05 mM EDTA, 12.5% glycerol, 0.1 mM DTT, 1 mg/ml BSA, room temperature (30 C for viral ssDNA); SPR: 50 mM Tris, 150 mM NaCl, pH 7.5, 25 C; details: protein: recombinant, chain copies: 2
TcaR [4] = molecular target: T1, TcaR; test: SPR; EMSA: 20 mM Tris-HCl pH 8.0, 150 mM KCl, 0.1 mM MgCl2, 0.05 mM EDTA, 12.5% glycerol, 0.1 mM DTT, 1 mg/ml BSA, room temperature (30 C for viral ssDNA); SPR: 50 mM Tris, 150 mM NaCl, pH 7.5, 25 C; details: protein: recombinant; chain copies: 2; label: 5' biotin (SPR)
TcaR [5] = molecular target: T1, TcaR; test: EMSA; similar to GC33; small and large complexes; EMSA: 20 mM Tris-HCl pH 8.0, 150 mM KCl, 0.1 mM MgCl2, 0.05 mM EDTA, 12.5% glycerol, 0.1 mM DTT, 1 mg/ml BSA, room temperature (30 C for viral ssDNA); SPR: 50 mM Tris, 150 mM NaCl, pH 7.5, 25 C; details: protein: recombinant; chain copies: 2
TcaR [6] = molecular target: T1, TcaR; test: SPR; shown as '-' in table; EMSA: 20 mM Tris-HCl pH 8.0, 150 mM KCl, 0.1 mM MgCl2, 0.05 mM EDTA, 12.5% glycerol, 0.1 mM DTT, 1 mg/ml BSA, room temperature (30 C for viral ssDNA); SPR: 50 mM Tris, 150 mM NaCl, pH 7.5, 25 C; details: protein: recombinant; chain copies: 2
TcaR [7] = molecular target: T1, TcaR; test: EMSA; similar to GC33; small complex; EMSA: 20 mM Tris-HCl pH 8.0, 150 mM KCl, 0.1 mM MgCl2, 0.05 mM EDTA, 12.5% glycerol, 0.1 mM DTT, 1 mg/ml BSA, room temperature (30 C for viral ssDNA); SPR: 50 mM Tris, 150 mM NaCl, pH 7.5, 25 C; details: protein: recombinant; chain copies: 2

GATTATTTATTTTCAAATTATTTATTTTCAAGG (ssDNA) [AT33]
binding result (TcaR [1]; label: 5' biotin (SPR only)): binds

B1: IcaR DNA1 (dsDNA)
DNA 1: TATTGCAAATTGAAATACTTTCGATTAGCATAT
DNA 2: ATATGCTAATCGAAAGTATTTCAATTTGCAATA
binding result (TcaR quadruple mutant): no binding | binding result (TcaR [2]): binds

ATATGCTAATCGAAAGTATTTCAATTTGCAATA (ssDNA) [IcaR DNA1A]
binding result (TcaR [1]): binds

TATTGCAAATTGAAATACTTTCGATTAGCATAT (ssDNA) [IcaR DNA1S]
binding result (TcaR [1]): binds

GAGCGTTGGCGTCGTGC (ssDNA) [GC17]
binding result (TcaR [3]; label: 5' biotin (SPR only)): no binding

GATTATTTATTTTCAAG (ssDNA) [AT17]
binding result (TcaR [3]): no binding

GTTGGCGT (ssDNA) [GC8]
binding result (TcaR [4]): no binding

GAGCGTTGGCGTCGTGAGCGTTGGCGTCGTGCG (ssDNA) [GC33]
binding result (TcaR [1]; label: 5' biotin (SPR only)): binds | binding result (TcaR quadruple mutant; label: 5' biotin (SPR only)): no binding

GCGTTGGCGTCGTGAGCGTTGGCGTCGTG (ssDNA) [GC29]
binding result (TcaR [5]): binds

B2: Control dsDNA (dsDNA)
DNA 1: CCCCCGGGTTCGATGGGCTCAAGGCGGGCATGAAGTACCCCGTACTTCATGCCCGCCTTGAGCCCATCGAACCC
DNA 2: GGGTTCGATGGGCTCAAGGCGGGCATGAAGTACGGGGTACTTCATGCCCGCCTTGAGCCCATCGAACCCGGGGG
binding result (TcaR [6]): no binding

GTTGGCGTCGTGAGCGTTGGCGTCG (ssDNA) [GC25]
binding result (TcaR [7]): binds
